Results taken from US20200270586A1 (PROMEGA, published 2020).

Target: T1, LgTrip 3092 (SEQ ID NO: 19)
T1 construct: also called LgTrip 3092 His; ATG 3092
Test: tripartite luminescence complementation (with pep86 as third part)

## GSMLFRVTINS [SmTrip9 pep245]
  binding result: binds
